Results published in publication PMC6838674, “Apelin-36-[L28A] and Apelin-36-[L28C(30kDa-PEG)] peptides that improve diet induced obesity are G protein biased ligands at the apelin receptor” (Peptides, 2019).

Target: T1, apelin receptor (Rattus norvegicus), Q9JHG3
T1 chain: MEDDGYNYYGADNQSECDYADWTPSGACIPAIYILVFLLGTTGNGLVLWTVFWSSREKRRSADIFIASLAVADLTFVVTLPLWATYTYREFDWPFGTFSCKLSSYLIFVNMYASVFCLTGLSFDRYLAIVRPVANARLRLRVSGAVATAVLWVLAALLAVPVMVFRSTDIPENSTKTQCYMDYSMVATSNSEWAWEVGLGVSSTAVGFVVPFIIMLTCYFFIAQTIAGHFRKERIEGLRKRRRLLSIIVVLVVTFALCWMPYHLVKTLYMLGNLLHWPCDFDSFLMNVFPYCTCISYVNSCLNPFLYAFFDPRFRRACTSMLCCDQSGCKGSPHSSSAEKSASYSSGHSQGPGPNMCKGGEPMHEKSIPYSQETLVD
Assay: radioligand competition binding, heart homogenate
Conditions: modification not given

Ki: 8.71 nM
B1: apelin-36-[L28C(30kDa-PEG)] (peptide)
chain: LVQPRGSRNGPGPWQGGRRKFRRQRPRCSHKGPMPF
